Assay results published in patent US20210139548A1 (published 2021).
*1 amine or outer side, *2 acyl side, *3 side chain or, on linkers, in order; H or OH if unused. Side-chain parts run from the residue outwards. The star is where a group is joined. C18 diacid = O=C(O)CCCCCCCCCCCCCCCCC(=O)*; γGlu = O=C(O)[C@H](CCC(=O)[*:2])N[*:1]; Isovaleryl = CC(C)CC(=O)*; AEEA = NCCOCCOCC(=O)O

T1: human neuropeptide Y2 receptor (human, UniProt P49146 1-381)
T1 construct: whole, on cells; also called hNPY2 receptor; hNPY2-R
T1 sequence (looked up): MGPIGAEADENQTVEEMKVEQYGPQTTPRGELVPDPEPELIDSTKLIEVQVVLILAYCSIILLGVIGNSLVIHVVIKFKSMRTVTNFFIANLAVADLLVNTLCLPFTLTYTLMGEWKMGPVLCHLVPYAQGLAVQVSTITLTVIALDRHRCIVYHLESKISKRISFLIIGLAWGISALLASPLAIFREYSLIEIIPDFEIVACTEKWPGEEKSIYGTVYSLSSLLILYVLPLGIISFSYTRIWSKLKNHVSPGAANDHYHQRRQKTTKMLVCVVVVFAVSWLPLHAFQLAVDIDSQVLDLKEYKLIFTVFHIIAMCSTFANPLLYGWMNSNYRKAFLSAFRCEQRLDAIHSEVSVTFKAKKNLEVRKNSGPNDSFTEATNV


Molecular target: T1, human neuropeptide Y2 receptor
Experiment: radioligand competition (125I-PYY(1-36)), hNPY2R membranes
Procedure, shortened: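 Commercial human Y2 receptor membranes (0.5 μg protein/well) were incubated with peptide for 2 h at room temperature in 50 mM HEPES, 5 mM MgCl₂, 1 mM CaCl₂, pH 7.4, with 0.2% ovalbumin. Bound radioligand was separated on PEI-soaked GF/C filters and counted by scintillation, and IC₅₀ came from nonlinear sigmoidal regression.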

Binder	Ki [nM]
Isovaleryl-APEK([AEEA-AEEA-γGlu-C18 diacid])PPADASPEELQRYYVSLRHYYNWLTRQRY-NH2 (SMILES CC(C)CC(=O)N[C@@H](C)C(=O)N1CCC[C@H]1C(=O)N[C@@H](CCC(=O)O)C(=O)N[C@@H](CCCCNC(=O)COCCOCCNC(=O)COCCOCCNC(=O)CC[C@H](NC(=O)CCCCCCCCCCCCCCCCC(=O)O)C(=O)O)C(=O)N1CCC[C@H]1C(=O)N1CCC[C@H]1C(=O)N[C@@H](C)C(=O)N[C@@H](CC(=O)O)C(=O)N[C@@H](C)C(=O)N[C@@H](CO)C(=O)N1CCC[C@H]1C(=O)N[C@@H](CCC(=O)O)C(=O)N[C@@H](CCC(=O)O)C(=O)N[C@@H](CC(C)C)C(=O)N[C@@H](CCC(N)=O)C(=O)N[C@@H](CCCNC(=N)N)C(=O)N[C@@H](Cc1ccc(O)cc1)C(=O)N[C@@H](Cc1ccc(O)cc1)C(=O)N[C@H](C(=O)N[C@@H](CO)C(=O)N[C@@H](CC(C)C)C(=O)N[C@@H](CCCNC(=N)N)C(=O)N[C@@H](Cc1c[nH]cn1)C(=O)N[C@@H](Cc1ccc(O)cc1)C(=O)N[C@@H](Cc1ccc(O)cc1)C(=O)N[C@@H](CC(N)=O)C(=O)N[C@@H](Cc1c[nH]c2ccccc12)C(=O)N[C@@H](CC(C)C)C(=O)N[C@H](C(=O)N[C@@H](CCCNC(=N)N)C(=O)N[C@@H](CCC(N)=O)C(=O)N[C@@H](CCCNC(=N)N)C(=O)N[C@@H](Cc1ccc(O)cc1)C(N)=O)[C@@H](C)O)C(C)C) [Compound 47]	0.42
Isovaleryl-APEK([AEEA-AEEA-γGlu-C18 diacid])PEEDASPEELQQYYVELRHYYNWLTRQRY-NH2 (SMILES CC(C)CC(=O)N[C@@H](C)C(=O)N1CCC[C@H]1C(=O)N[C@@H](CCC(=O)O)C(=O)N[C@@H](CCCCNC(=O)COCCOCCNC(=O)COCCOCCNC(=O)CC[C@H](NC(=O)CCCCCCCCCCCCCCCCC(=O)O)C(=O)O)C(=O)N1CCC[C@H]1C(=O)N[C@@H](CCC(=O)O)C(=O)N[C@@H](CCC(=O)O)C(=O)N[C@@H](CC(=O)O)C(=O)N[C@@H](C)C(=O)N[C@@H](CO)C(=O)N1CCC[C@H]1C(=O)N[C@@H](CCC(=O)O)C(=O)N[C@@H](CCC(=O)O)C(=O)N[C@@H](CC(C)C)C(=O)N[C@@H](CCC(N)=O)C(=O)N[C@@H](CCC(N)=O)C(=O)N[C@@H](Cc1ccc(O)cc1)C(=O)N[C@@H](Cc1ccc(O)cc1)C(=O)N[C@H](C(=O)N[C@@H](CCC(=O)O)C(=O)N[C@@H](CC(C)C)C(=O)N[C@@H](CCCNC(=N)N)C(=O)N[C@@H](Cc1c[nH]cn1)C(=O)N[C@@H](Cc1ccc(O)cc1)C(=O)N[C@@H](Cc1ccc(O)cc1)C(=O)N[C@@H](CC(N)=O)C(=O)N[C@@H](Cc1c[nH]c2ccccc12)C(=O)N[C@@H](CC(C)C)C(=O)N[C@H](C(=O)N[C@@H](CCCNC(=N)N)C(=O)N[C@@H](CCC(N)=O)C(=O)N[C@@H](CCCNC(=N)N)C(=O)N[C@@H](Cc1ccc(O)cc1)C(N)=O)[C@@H](C)O)C(C)C) [Compound 49]	0.89
Isovaleryl-APEK([AEEA-AEEA-γGlu-C18 diacid])PEEDTEPEELQRYYVSLRHYYNWLTRQRY-NH2 (SMILES CC(C)CC(=O)N[C@@H](C)C(=O)N1CCC[C@H]1C(=O)N[C@@H](CCC(=O)O)C(=O)N[C@@H](CCCCNC(=O)COCCOCCNC(=O)COCCOCCNC(=O)CC[C@H](NC(=O)CCCCCCCCCCCCCCCCC(=O)O)C(=O)O)C(=O)N1CCC[C@H]1C(=O)N[C@@H](CCC(=O)O)C(=O)N[C@@H](CCC(=O)O)C(=O)N[C@@H](CC(=O)O)C(=O)N[C@H](C(=O)N[C@@H](CCC(=O)O)C(=O)N1CCC[C@H]1C(=O)N[C@@H](CCC(=O)O)C(=O)N[C@@H](CCC(=O)O)C(=O)N[C@@H](CC(C)C)C(=O)N[C@@H](CCC(N)=O)C(=O)N[C@@H](CCCNC(=N)N)C(=O)N[C@@H](Cc1ccc(O)cc1)C(=O)N[C@@H](Cc1ccc(O)cc1)C(=O)N[C@H](C(=O)N[C@@H](CO)C(=O)N[C@@H](CC(C)C)C(=O)N[C@@H](CCCNC(=N)N)C(=O)N[C@@H](Cc1c[nH]cn1)C(=O)N[C@@H](Cc1ccc(O)cc1)C(=O)N[C@@H](Cc1ccc(O)cc1)C(=O)N[C@@H](CC(N)=O)C(=O)N[C@@H](Cc1c[nH]c2ccccc12)C(=O)N[C@@H](CC(C)C)C(=O)N[C@H](C(=O)N[C@@H](CCCNC(=N)N)C(=O)N[C@@H](CCC(N)=O)C(=O)N[C@@H](CCCNC(=N)N)C(=O)N[C@@H](Cc1ccc(O)cc1)C(N)=O)[C@@H](C)O)C(C)C)[C@@H](C)O) [Compound 48]	38.9

Now from value to binder:

Ki [nM]	Binder
8.53	Isovaleryl-APEK([AEEA-AEEA-γGlu-C18 diacid])AEEDASEEELQRYYVSLRHYYNWLTRQRY-NH2 (SMILES CC(C)CC(=O)N[C@@H](C)C(=O)N1CCC[C@H]1C(=O)N[C@@H](CCC(=O)O)C(=O)N[C@@H](CCCCNC(=O)COCCOCCNC(=O)COCCOCCNC(=O)CC[C@H](NC(=O)CCCCCCCCCCCCCCCCC(=O)O)C(=O)O)C(=O)N[C@@H](C)C(=O)N[C@@H](CCC(=O)O)C(=O)N[C@@H](CCC(=O)O)C(=O)N[C@@H](CC(=O)O)C(=O)N[C@@H](C)C(=O)N[C@@H](CO)C(=O)N[C@@H](CCC(=O)O)C(=O)N[C@@H](CCC(=O)O)C(=O)N[C@@H](CCC(=O)O)C(=O)N[C@@H](CC(C)C)C(=O)N[C@@H](CCC(N)=O)C(=O)N[C@@H](CCCNC(=N)N)C(=O)N[C@@H](Cc1ccc(O)cc1)C(=O)N[C@@H](Cc1ccc(O)cc1)C(=O)N[C@H](C(=O)N[C@@H](CO)C(=O)N[C@@H](CC(C)C)C(=O)N[C@@H](CCCNC(=N)N)C(=O)N[C@@H](Cc1c[nH]cn1)C(=O)N[C@@H](Cc1ccc(O)cc1)C(=O)N[C@@H](Cc1ccc(O)cc1)C(=O)N[C@@H](CC(N)=O)C(=O)N[C@@H](Cc1c[nH]c2ccccc12)C(=O)N[C@@H](CC(C)C)C(=O)N[C@H](C(=O)N[C@@H](CCCNC(=N)N)C(=O)N[C@@H](CCC(N)=O)C(=O)N[C@@H](CCCNC(=N)N)C(=O)N[C@@H](Cc1ccc(O)cc1)C(N)=O)[C@@H](C)O)C(C)C) [Compound 52]
39.4	Isovaleryl-APEK([AEEA-AEEA-γGlu-C18 diacid])AEEEASPEELQRYYVSLRHYYNWLTRQRY-NH2 (SMILES CC(C)CC(=O)N[C@@H](C)C(=O)N1CCC[C@H]1C(=O)N[C@@H](CCC(=O)O)C(=O)N[C@@H](CCCCNC(=O)COCCOCCNC(=O)COCCOCCNC(=O)CC[C@H](NC(=O)CCCCCCCCCCCCCCCCC(=O)O)C(=O)O)C(=O)N[C@@H](C)C(=O)N[C@@H](CCC(=O)O)C(=O)N[C@@H](CCC(=O)O)C(=O)N[C@@H](CCC(=O)O)C(=O)N[C@@H](C)C(=O)N[C@@H](CO)C(=O)N1CCC[C@H]1C(=O)N[C@@H](CCC(=O)O)C(=O)N[C@@H](CCC(=O)O)C(=O)N[C@@H](CC(C)C)C(=O)N[C@@H](CCC(N)=O)C(=O)N[C@@H](CCCNC(=N)N)C(=O)N[C@@H](Cc1ccc(O)cc1)C(=O)N[C@@H](Cc1ccc(O)cc1)C(=O)N[C@H](C(=O)N[C@@H](CO)C(=O)N[C@@H](CC(C)C)C(=O)N[C@@H](CCCNC(=N)N)C(=O)N[C@@H](Cc1c[nH]cn1)C(=O)N[C@@H](Cc1ccc(O)cc1)C(=O)N[C@@H](Cc1ccc(O)cc1)C(=O)N[C@@H](CC(N)=O)C(=O)N[C@@H](Cc1c[nH]c2ccccc12)C(=O)N[C@@H](CC(C)C)C(=O)N[C@H](C(=O)N[C@@H](CCCNC(=N)N)C(=O)N[C@@H](CCC(N)=O)C(=O)N[C@@H](CCCNC(=N)N)C(=O)N[C@@H](Cc1ccc(O)cc1)C(N)=O)[C@@H](C)O)C(C)C) [Compound 51]
3.35	Isovaleryl-APEK([AEEA-AEEA-γGlu-C18 diacid])PEEDASPEEAQRYYVSLRHYYNWLTRQRY-NH2 (SMILES CC(C)CC(=O)N[C@@H](C)C(=O)N1CCC[C@H]1C(=O)N[C@@H](CCC(=O)O)C(=O)N[C@@H](CCCCNC(=O)COCCOCCNC(=O)COCCOCCNC(=O)CC[C@H](NC(=O)CCCCCCCCCCCCCCCCC(=O)O)C(=O)O)C(=O)N1CCC[C@H]1C(=O)N[C@@H](CCC(=O)O)C(=O)N[C@@H](CCC(=O)O)C(=O)N[C@@H](CC(=O)O)C(=O)N[C@@H](C)C(=O)N[C@@H](CO)C(=O)N1CCC[C@H]1C(=O)N[C@@H](CCC(=O)O)C(=O)N[C@@H](CCC(=O)O)C(=O)N[C@@H](C)C(=O)N[C@@H](CCC(N)=O)C(=O)N[C@@H](CCCNC(=N)N)C(=O)N[C@@H](Cc1ccc(O)cc1)C(=O)N[C@@H](Cc1ccc(O)cc1)C(=O)N[C@H](C(=O)N[C@@H](CO)C(=O)N[C@@H](CC(C)C)C(=O)N[C@@H](CCCNC(=N)N)C(=O)N[C@@H](Cc1c[nH]cn1)C(=O)N[C@@H](Cc1ccc(O)cc1)C(=O)N[C@@H](Cc1ccc(O)cc1)C(=O)N[C@@H](CC(N)=O)C(=O)N[C@@H](Cc1c[nH]c2ccccc12)C(=O)N[C@@H](CC(C)C)C(=O)N[C@H](C(=O)N[C@@H](CCCNC(=N)N)C(=O)N[C@@H](CCC(N)=O)C(=O)N[C@@H](CCCNC(=N)N)C(=O)N[C@@H](Cc1ccc(O)cc1)C(N)=O)[C@@H](C)O)C(C)C) [Compound 55]
